The values below come from the supplement of paper PMC9112550, “Optimization of the antimicrobial peptide Bac7 by deep mutational scanning” (BMC Biology, 2022).

In this data set the test system is Escherichia coli TOP10. Briefly: shrunken log2 fold change of peptide-encoding DNA abundance (4.5 h post-induction vs induction); higher = less antimicrobial activity (less host growth inhibition). The settings on record: time post-induction: 4.5 h; library: site-saturation at positions 5, 18, 19, 20.
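Note: peptides expressed intracellularly from a pBAD plasmid library in pooled LB shake-flask culture, induced with 0.3% L-arabinose, DNA abundance read by NGS, three biological replicates, DESeq2 with apeglm shrinkage.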

In the case of RRIRFRPPRLPRPRPRPNIMPRP, the “shrunken log2 fold change” value was -0.658.
For RRIRNRPPRLPRPRPRPNHWPRP the value was -0.125.
On to RRIRSRPPRLPRPRPRPMASPRP, for which the “shrunken log2 fold change” value was 0.088.
For RRIRRRPPRLPRPRPRPTPKPRP the value was 1.24; for RRIRFRPPRLPRPRPRPDYMPRP, -0.432.
RRIRGRPPRLPRPRPRPNINPRP: the “shrunken log2 fold change” value turned out to be 0.337.
Take RRIRSRPPRLPRPRPRPGKPPRP: the “shrunken log2 fold change” value is 0.0657.
For RRIRCRPPRLPRPRPRPCSVPRP the value was -0.177; for RRIRWRPPRLPRPRPRPRWFPRP, 0.999; for RRIRLRPPRLPRPRPRPDNQPRP, -0.889.
Turning to RRIRSRPPRLPRPRPRPTHSPRP, the “shrunken log2 fold change” value amounted to 0.186.
With RRIRHRPPRLPRPRPRPFGNPRP, the “shrunken log2 fold change” value was -0.119.
For RRIRGRPPRLPRPRPRPVLTPRP, the “shrunken log2 fold change” value came to 0.834.
For the sequence RRIRARPPRLPRPRPRPCWDPRP, the “shrunken log2 fold change” value was -0.102.
RRIRCRPPRLPRPRPRPHPRPRP: the “shrunken log2 fold change” value turned out to be 0.444.
As for RRIRARPPRLPRPRPRPFGHPRP, the “shrunken log2 fold change” value amounted to 0.132.
RRIRIRPPRLPRPRPRPVSDPRP: the “shrunken log2 fold change” value was -0.619.
For RRIRFRPPRLPRPRPRPIGLPRP the value was -0.251; for RRIRWRPPRLPRPRPRPIILPRP, -0.283; for RRIRHRPPRLPRPRPRPHDPPRP, -0.613.
For the sequence RRIRWRPPRLPRPRPRPCQSPRP, the “shrunken log2 fold change” value was -0.098.
As to RRIRCRPPRLPRPRPRPCMAPRP, the “shrunken log2 fold change” value was -0.427.
Consider RRIRYRPPRLPRPRPRPPVDPRP, for which the “shrunken log2 fold change” value was determined as 0.155.
In the case of RRIRRRPPRLPRPRPRPDDCPRP, the “shrunken log2 fold change” value came out at 0.279.
On to RRIRYRPPRLPRPRPRPQNAPRP, for which the “shrunken log2 fold change” value is -0.369.
On to RRIRSRPPRLPRPRPRPTSDPRP, for which the “shrunken log2 fold change” value was -0.00252.
For RRIRMRPPRLPRPRPRPMCPPRP the value was -0.00088; for RRIRKRPPRLPRPRPRPYGYPRP, -0.0282.
Regarding RRIRMRPPRLPRPRPRPKDMPRP, the “shrunken log2 fold change” value came to 0.0907.
Turning to RRIRMRPPRLPRPRPRPWRRPRP, the “shrunken log2 fold change” value was 0.22.
With RRIRRRPPRLPRPRPRPPPRPRP, the “shrunken log2 fold change” value was determined as 1.32.
Consider RRIRFRPPRLPRPRPRPQLDPRP, for which the “shrunken log2 fold change” value is 0.123.
Take RRIRIRPPRLPRPRPRPNARPRP: the “shrunken log2 fold change” value was determined as 0.0831.
For RRIRMRPPRLPRPRPRPTCHPRP, the “shrunken log2 fold change” value came to 0.317.
For RRIRWRPPRLPRPRPRPRYTPRP the value was -0.25; for RRIRQRPPRLPRPRPRPCCCPRP, 0.0589; for RRIRVRPPRLPRPRPRPFHEPRP, 0.324.
For the sequence RRIRLRPPRLPRPRPRPSFMPRP, the “shrunken log2 fold change” value is -0.309.
Regarding RRIRKRPPRLPRPRPRPYRLPRP, the “shrunken log2 fold change” value is -0.212.
For RRIRERPPRLPRPRPRPYFVPRP the value was -0.892.
Take RRIRCRPPRLPRPRPRPERQPRP: the “shrunken log2 fold change” value was -0.00823.
As for RRIRIRPPRLPRPRPRPWYIPRP, the “shrunken log2 fold change” value is -0.0639.
For RRIRWRPPRLPRPRPRPHNWPRP the value was 0.0898.
For RRIRMRPPRLPRPRPRPSAMPRP, the “shrunken log2 fold change” value came to 1.44.
With RRIRGRPPRLPRPRPRPEYCPRP, the “shrunken log2 fold change” value worked out at 0.307.
On to RRIRPRPPRLPRPRPRPCEAPRP, for which the “shrunken log2 fold change” value was 0.0756.
For RRIRLRPPRLPRPRPRPQAMPRP the value was 0.00366; for RRIRMRPPRLPRPRPRPQIWPRP, 0.144.
Take RRIRMRPPRLPRPRPRPRFQPRP: the “shrunken log2 fold change” value stood at 0.268.
Turning to RRIRSRPPRLPRPRPRPAIMPRP, the “shrunken log2 fold change” value was -0.152.
Take RRIRFRPPRLPRPRPRPGFFPRP: the “shrunken log2 fold change” value stood at 0.023.
For RRIRKRPPRLPRPRPRPSGWPRP the value was -0.146; for RRIRYRPPRLPRPRPRPWRCPRP, 2.33.
Turning to RRIRDRPPRLPRPRPRPMCCPRP, the “shrunken log2 fold change” value turned out to be 0.0249.
As to RRIRLRPPRLPRPRPRPNILPRP, the “shrunken log2 fold change” value was -0.634.
For the sequence RRIRQRPPRLPRPRPRPWCDPRP, the “shrunken log2 fold change” value is -0.191.
For RRIRFRPPRLPRPRPRPCPSPRP the value was -0.0894; for RRIRDRPPRLPRPRPRPGCNPRP, 0.0955.
For RRIRARPPRLPRPRPRPILRPRP the value was 0.0733.
With RRIRWRPPRLPRPRPRPNAKPRP, the “shrunken log2 fold change” value was found to be 0.188.
As for RRIRVRPPRLPRPRPRPSMWPRP, the “shrunken log2 fold change” value was -0.104.
Regarding RRIRQRPPRLPRPRPRPAYWPRP, the “shrunken log2 fold change” value turned out to be 0.128.
For RRIRFRPPRLPRPRPRPNQEPRP, the “shrunken log2 fold change” value was determined as 0.229.
On to RRIRFRPPRLPRPRPRPAIAPRP, for which the “shrunken log2 fold change” value turned out to be 0.0519.
On to RRIRPRPPRLPRPRPRPFWIPRP, for which the “shrunken log2 fold change” value was -0.161.
For RRIRTRPPRLPRPRPRPHSEPRP the value was -0.0681.
Consider RRIRHRPPRLPRPRPRPLLGPRP, for which the “shrunken log2 fold change” value is -0.107.
Consider RRIRWRPPRLPRPRPRPPYEPRP, for which the “shrunken log2 fold change” value was -0.103.
For RRIRCRPPRLPRPRPRPMSAPRP, the “shrunken log2 fold change” value is -0.0757.
For RRIRCRPPRLPRPRPRPVCVPRP the value was -0.0801; for RRIRHRPPRLPRPRPRPTAYPRP, -0.23; for RRIRMRPPRLPRPRPRPRCSPRP, 0.393.
Turning to RRIRIRPPRLPRPRPRPHLGPRP, the “shrunken log2 fold change” value came out at 0.0798.
On to RRIRQRPPRLPRPRPRPEKGPRP, for which the “shrunken log2 fold change” value was -0.017.
As to RRIRTRPPRLPRPRPRPKLEPRP, the “shrunken log2 fold change” value is -0.0598.
In the case of RRIRERPPRLPRPRPRPKFIPRP, the “shrunken log2 fold change” value was -0.144.
Take RRIRIRPPRLPRPRPRPDMPPRP: the “shrunken log2 fold change” value is -0.109.
Take RRIRERPPRLPRPRPRPGFGPRP: the “shrunken log2 fold change” value is 0.0959.
As to RRIRFRPPRLPRPRPRPMRFPRP, the “shrunken log2 fold change” value is -0.0257.
As for RRIRQRPPRLPRPRPRPHYHPRP, the “shrunken log2 fold change” value was -0.127.
For RRIRLRPPRLPRPRPRPFLIPRP the value was -0.666; for RRIRGRPPRLPRPRPRPIIKPRP, 0.237.
With RRIRWRPPRLPRPRPRPQVNPRP, the “shrunken log2 fold change” value amounted to 0.141.
Regarding RRIRTRPPRLPRPRPRPEEVPRP, the “shrunken log2 fold change” value was -0.0075.
RRIRLRPPRLPRPRPRPMKSPRP: the “shrunken log2 fold change” value worked out at 0.00719.
For RRIRPRPPRLPRPRPRPQFCPRP the value was -0.153; for RRIRMRPPRLPRPRPRPPPAPRP, 2.14; for RRIRHRPPRLPRPRPRPESFPRP, -0.0018.
For the sequence RRIRGRPPRLPRPRPRPTSDPRP, the “shrunken log2 fold change” value is 0.931.
Turning to RRIRMRPPRLPRPRPRPWEKPRP, the “shrunken log2 fold change” value came to 0.217.
Regarding RRIRCRPPRLPRPRPRPCEDPRP, the “shrunken log2 fold change” value is -0.219.
With RRIRERPPRLPRPRPRPGSDPRP, the “shrunken log2 fold change” value is -0.369.
For RRIRGRPPRLPRPRPRPRDFPRP the value was 0.619.
For RRIRERPPRLPRPRPRPTQCPRP the value was -0.133; for RRIRPRPPRLPRPRPRPYAFPRP, -0.264.
For the sequence RRIRPRPPRLPRPRPRPFFPPRP, the “shrunken log2 fold change” value is -0.135.
On to RRIRHRPPRLPRPRPRPARGPRP, for which the “shrunken log2 fold change” value was found to be 0.319.
For the sequence RRIRMRPPRLPRPRPRPRELPRP, the “shrunken log2 fold change” value turned out to be 1.54.
With RRIRVRPPRLPRPRPRPPRFPRP, the “shrunken log2 fold change” value was 0.577.
Consider RRIRYRPPRLPRPRPRPTIYPRP, for which the “shrunken log2 fold change” value is -0.939.
RRIRSRPPRLPRPRPRPWIRPRP: the “shrunken log2 fold change” value was -0.207.
On to RRIRGRPPRLPRPRPRPPAAPRP, for which the “shrunken log2 fold change” value was 1.63.
RRIRMRPPRLPRPRPRPTMPPRP: the “shrunken log2 fold change” value came out at 0.174.
For the sequence RRIRIRPPRLPRPRPRPYDGPRP, the “shrunken log2 fold change” value is -0.0104.
For RRIRDRPPRLPRPRPRPNEGPRP the value was -0.000567.
In the case of RRIRFRPPRLPRPRPRPSYTPRP, the “shrunken log2 fold change” value was -0.771.
As to RRIRQRPPRLPRPRPRPHYKPRP, the “shrunken log2 fold change” value is -1.18.
Take RRIRSRPPRLPRPRPRPRFAPRP: the “shrunken log2 fold change” value came out at 0.24.
As to RRIRRRPPRLPRPRPRPQWHPRP, the “shrunken log2 fold change” value amounted to 0.181.
Take RRIRNRPPRLPRPRPRPFPDPRP: the “shrunken log2 fold change” value is -0.00602.
As to RRIRWRPPRLPRPRPRPVRWPRP, the “shrunken log2 fold change” value was 0.874.
For RRIRFRPPRLPRPRPRPPNDPRP the value was 0.273.
On to RRIRYRPPRLPRPRPRPWWEPRP, for which the “shrunken log2 fold change” value is -0.0644.
For the sequence RRIRQRPPRLPRPRPRPVCCPRP, the “shrunken log2 fold change” value came to 0.161.
For RRIRMRPPRLPRPRPRPKDKPRP the value was 1.93.
For RRIRFRPPRLPRPRPRPFNVPRP the value was -0.0431.
Take RRIRERPPRLPRPRPRPDNPPRP: the “shrunken log2 fold change” value is -0.0894.
For RRIRTRPPRLPRPRPRPTWTPRP the value was -0.136; for RRIRQRPPRLPRPRPRPATFPRP, 0.157; for RRIRYRPPRLPRPRPRPIVDPRP, -0.268.
For RRIRDRPPRLPRPRPRPRNPPRP the value was -0.0578; for RRIRIRPPRLPRPRPRPHAPPRP, 0.2; for RRIRQRPPRLPRPRPRPIECPRP, -0.0217.
On to RRIRNRPPRLPRPRPRPFSNPRP, for which the “shrunken log2 fold change” value is -0.214.
In the case of RRIRPRPPRLPRPRPRPFNKPRP, the “shrunken log2 fold change” value is -0.468.
